From US20100120068A1 (PHARMACOME, published 2010) come the findings set out here.

For the experiment, the target named is T1, human α1A-adrenergic receptor (human, UniProt P35348 1-466).
T1 construct: Expressed in CHO-K1 cells either alone (α1A cells) or together with CRELD1α (α1L cells); also called ADRA1A; α1A-subtype
T1 sequence: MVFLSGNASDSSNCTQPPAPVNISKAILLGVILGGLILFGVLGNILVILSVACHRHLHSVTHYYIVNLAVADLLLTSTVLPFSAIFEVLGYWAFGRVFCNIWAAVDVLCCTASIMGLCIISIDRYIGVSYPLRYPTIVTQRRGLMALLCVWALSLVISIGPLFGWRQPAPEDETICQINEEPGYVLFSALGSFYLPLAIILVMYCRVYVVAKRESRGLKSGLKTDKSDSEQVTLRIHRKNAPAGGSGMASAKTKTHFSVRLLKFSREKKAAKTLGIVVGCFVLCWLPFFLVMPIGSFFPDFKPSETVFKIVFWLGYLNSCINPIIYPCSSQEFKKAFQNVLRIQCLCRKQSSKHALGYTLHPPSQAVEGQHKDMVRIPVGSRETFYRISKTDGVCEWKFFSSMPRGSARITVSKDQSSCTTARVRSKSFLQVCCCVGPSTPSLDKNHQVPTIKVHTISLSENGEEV
Kind of experiment: method not described; told in the description only.

B1: CRELD (cysteine-rich with EGF-like domains) 1α protein (other)
chain: QPSPPPQSSPPPQPHPCHTCRGLVDSFNKGLERTIRDNFGGGNTAWEEENLSKYKDSETRLVEVLEGVCSKSDFECHRLLELSEELVESWWFHKQQEAPDLFQWLCSDSLKLCCPAGTFGPSCLPCPGGTERPCGGYGQCEGEGTRGGSGHCDCQAGYGGEACGQCGLGYFEAERNASHLVCSACFGPCARCSGPEESNCLQCKKGWALHHLKCVDIDECGTEGANCGADQFCVNTEGSYECRDCAKACLGCMGAGPGRCKKCSPGYQQVGSKCLDVDECETEVCPGENKQCENTEGGYRCICAEGYKQMEGICVKEQIPESAGFFSEMTEDELVVLQQMFFGIIICALATLAAKGDLVFTAIFIGAVAAMTGYWLSERSDRVLEGFIKGR
notes: The whole coding region was used; No signal peptide limits are stated; also called CRELD1α; CREDL1α
As for B1, the binding result is reported as “binds”.
